Data on five substances can be found in publication PMC5348903.

Assay [1] has as its target short isoform of BST2, Q10589-2. In words: co-immunoprecipitation (Western blot densitometry). Particulars: HEK293T cells co-transfected with proviral construct and expressor of the short isoform of BST2; parent: 100.
Another assay deals with BST2 (WT BST2 expressor) (UniProt Q10589). As to the kind of experiment: co-immunoprecipitation (anti-BST2 Ab pull-down, Western blot densitometry). Particulars: HEK293T cells co-transfected with proviral construct and BST2 expressor; parent: 100.

Sequence of short isoform of BST2, Q10589-2 (Q10589 13-161): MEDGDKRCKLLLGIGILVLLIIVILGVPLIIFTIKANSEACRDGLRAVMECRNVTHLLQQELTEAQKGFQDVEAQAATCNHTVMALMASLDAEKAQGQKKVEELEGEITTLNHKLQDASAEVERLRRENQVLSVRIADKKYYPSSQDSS

Turning to HIV-1 NL4-3 Vpu, wildtype E28A; L33A, the values for the percent of parent (% BST2 binding (relative to WT)) (in assay [1]; with BST2 (WT BST2 expressor)) were 18 and 24, respectively.
Consider HIV-1 NL4-3 Vpu, wildtype S52D; S56D, for which the percent of parent (% BST2 binding (relative to WT)) in assay [1] came out at 111; with BST2 (WT BST2 expressor), 130.
Consider “HIV-1 NL4-3 Vpu, wildtype A10L; A14L; A18L”, for which the percent of parent (% BST2 binding (relative to WT)) came to 12 in assay [1] and 14 with BST2 (WT BST2 expressor).
In the case of HIV-1 NL4-3 Vpu, wildtype E59K; L63F, the percent of parent (% BST2 binding (relative to WT)) in assay [1] is 144; with BST2 (WT BST2 expressor) it was 139.
Consider “HIV-1 NL4-3 Vpu, wildtype E28A; L33A; E59K; L63F”, for which the percent of parent (% BST2 binding (relative to WT)) in assay [1] was determined as 31; with BST2 (WT BST2 expressor), 43.
